Laboratory results from US20220332804A1 (CSL INNOVATION, published 2022).
Changes are numbered by the printed parent chain.

Legend:
Assay in all cases: SPR, KD relative to WT C2;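 also: biacore SPR at 37 °C, anti-C2 mAbs captured on anti-human IgG chips with alanine or serine point mutants of C2 as analyte, KD from 1:1 fit compared with wild-type C2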
human C2 K329A = biological target: T1, human C2 K329A (human, UniProt P06681 21-752)
T1 sequence: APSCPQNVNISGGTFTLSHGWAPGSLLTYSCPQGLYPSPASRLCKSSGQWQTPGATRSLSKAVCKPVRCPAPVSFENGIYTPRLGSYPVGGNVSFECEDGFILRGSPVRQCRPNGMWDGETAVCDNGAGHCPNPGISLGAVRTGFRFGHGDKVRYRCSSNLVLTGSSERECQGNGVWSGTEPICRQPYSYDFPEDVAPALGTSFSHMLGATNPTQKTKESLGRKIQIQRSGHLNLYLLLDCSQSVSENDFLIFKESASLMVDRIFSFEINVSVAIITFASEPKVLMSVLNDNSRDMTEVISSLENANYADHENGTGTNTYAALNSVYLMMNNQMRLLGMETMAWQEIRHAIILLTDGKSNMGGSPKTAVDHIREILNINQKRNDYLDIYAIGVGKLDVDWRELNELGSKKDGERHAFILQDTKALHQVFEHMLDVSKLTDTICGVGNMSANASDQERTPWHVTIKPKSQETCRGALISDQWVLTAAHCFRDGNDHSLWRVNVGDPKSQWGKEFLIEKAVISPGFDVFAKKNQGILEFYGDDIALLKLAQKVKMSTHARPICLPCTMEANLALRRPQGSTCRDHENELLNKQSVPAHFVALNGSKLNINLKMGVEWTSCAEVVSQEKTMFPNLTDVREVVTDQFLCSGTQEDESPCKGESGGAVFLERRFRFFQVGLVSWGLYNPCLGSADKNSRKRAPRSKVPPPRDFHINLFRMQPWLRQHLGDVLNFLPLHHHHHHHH

human C2 K415A = biological target: T2, human C2 K415A (human, UniProt P06681 21-752)
T2 sequence: T1 sequence with A309K, K395A

human C2 D417A = biological target: T3, human C2 D417A (human, UniProt P06681 21-752)
T3 sequence: T1 sequence with A309K, D397A

human C2 R519A = biological target: T4, human C2 R519A (human, UniProt P06681 21-752)
T4 sequence: T1 sequence with A309K, R499A

B1: RF16-242 (antibody, human IgG4 S228P, lambda, V domains shown)
VH: EVQLLQSGAEVKKPGESLKISCKGSGYSFTSYWIGWVRQMPGKGLEWMGIIYPGDSDTRYSPSFQGQVTISADKSISTAYLQWSSLKASDTAMYYCARRGHYGDYFDYWGQGTLVTVSS
VL: SYELTQPPSVSVSPGQTARITCSGDALPKKYAYWYHQKSGQAPVLVIYEDRRRPSEIPERFSGSSSGTMATLTITGAQVEDEGVYFCYSRDRAGNQRVFGGGTQLTVLG
notes: pH-dependent anti-C2 antibody from a phage display library
**Q.** Which Fold diff (human C2 K329A) does the source give for B1 here?
**A.** The Fold diff was 2 fold.

**Q.** What about the Fold diff (human C2 K415A) of the same binder?
**A.** The Fold diff was 1 fold.

**Q.** And the Fold diff (human C2 D417A)?
**A.** Its Fold diff is 3 fold.

**Q.** What about the Fold diff (human C2 R519A) of the same binder?
**A.** Its Fold diff is 1 fold.
